Measurements published in US20240398964A1, “PEPTIDE FOR PENETRATING BLOOD-BRAIN BARRIER AND USE THEREOF” (NIBEC CO., LTD., priority 2021, published 2024).

How the values were obtained:
[1] = Brain delivery of peptide-antibody complex in normal animals (IVIS organ fluorescence, Optix MX3 3D brain image); format: in vivo, hairless mouse (SKH-1); conditions: Cy5.5 labeled, intravenous 4 mg/kg; for fluorescence in the brain (IVIS): FIG. 4(a); for extent of penetration into the brain (three-dimensional image): Optix MX3, FIG. 4(b)
Procedure: Cy5.5 labeled SEQ ID NO: 17 peptide for penetrating the blood-brain barrier, Cy5.5 labeled SEQ ID NO: 59 antibody, and the complex of Cy5.5-labeled SEQ ID NO: 17 peptide for penetrating the blood-brain barrier and SEQ ID NO: 59 antibody were injected intravenously at 4 mg/kg each to hairless mouse (SKH-1, female, 6 weeks old, OrientBio), and fluorescence in each organ (brain, liver, lung, spleen, kidney, heart) was measured at excitation: 685 nm and emission: 706 nm using IVIS (Perkin Elmer). In addition, three-dimensional images of the brain alone were measured using Optix MX3 (ART Advanced Research Technologies Inc.).

[2] = Concentration in blood and brain tissue of peptide-antibody complex in normal animals (IVIS); format: in vivo, hairless mouse (SKH-1)
Procedure: The control cell permeability peptide (TAT) and antibody of SEQ ID NO: 59 were prepared in the same manner as the expression method in Example 2 and labeled with cy5.5. The complex of the peptide for penetrating the blood-brain barrier of SEQ ID NO: 41 in which CGGGG was introduced in N term and the antibody of SEQ ID NO: 59 prepared in Example 2 was labeled labeled with Cy5.5. The antibody of SEQ ID NO: 59 was labeled with Cy5.5 and injected intravenously into hairless mouse (SKH-1, female, 6 weeks old, OrientBio) at 10 mg/kg each. Concentrations in brain and blood were measured at excitation: 685 nm and emission: 706 nm using IVIS (Perkin Elmer) until day 24, and the results are shown in FIG. 5.

U87MG-Luc 2 glioblastoma = experiment: Brain tumor animal model, bioluminescence and distribution at tumor site; format: in vivo, mouse; conditions: for bioluminescence of U87MG-Luc brain tumor cells: 1 mg/kg intravenous every 3 days, 4 doses, observed 16 days
Procedure: Using a brain tumor animal model, the ability of the complex of the peptide for penetrating the blood-brain barrier and antibody to penetrate the brain, inhibit brain tumors, and be distributed in the brain parenchyma was measured. Specifically, U87MG-Luc 2 (ATCC, HTB-14-LUC2™) cells, a luciferase-expressing U87MG glioblastoma, were cultured in DMEM medium supplemented with 10% FBS and 1% antibiotics. Nude 5- to 7-week-old mouse (Orient Bio) was anesthetized with isoflurane and immobilized using ear bars inside a stereotaxic instrument. After incising the scalp at the surgical site, a hole was made using a sterile drill 2 mm to the right to and 2 mm under the bregma. Then, 1.0×10^5/10 μL U87MG-Luc-2 cells were injected through the above hole with a 26G Hamilton syringe (1 μl/min), and after injection, the hole was closed with bone wax and sutured to close the scalp. The proliferation of transplanted glioblastoma was obtained by injecting D-luciferin potassium (15 mg/mL dissolved in PBS, sigma), a substrate of luciferase, at 150 mg/kg, to a mouse, and sacrificing it after 10 min, and measuring the bioluminescence using IVIS (Perkin Elmer), and the results are shown in FIG. 6.
Starting 4 days after glioblastoma transplantation, 1 mg/kg of the complex of CGGGG-SEQ ID NO: 41 peptide for penetrating the blood-brain barrier and SEQ ID NO: 59 antibody and 1 mg/kg SEQ ID NO: 59 antibody were injected intravenously. The administration interval between doses was every 3 days for a total of 4 doses for 16 days. […] FIG. 6 (a) is the photo of an IVIS observation of bioluminescence of U87MG-Luc cells on day 16. […] After 16 days of bioluminescence observation, the bioluminescence continued to increase in the glioblastoma transplanted and untreated group.
The complex of a peptide for penetrating the blood-brain barrier of CGGGG-SEQ ID NO: 41 labeled with cy5.5 and a SEQ ID NO: 59 antibody was administered to the same animal model 8 hours before sacrifice, and the brain was harvested. After frozen sectioning, the distribution of fluorescence was observed by confocal microscopy.

[3] = Cy5.5 labeled, intravenous 10 mg/kg

Molecule	fluorescence in the brain (IVIS) [1]	extent of penetration into the brain (three-dimensional image) [1]	fluorescence in brain tissue [2, 3]	time to clearance from the blood ([2]; Cy5.5 labeled, intravenous 10 mg/kg, measured until day 24)	bioluminescence of U87MG-Luc brain tumor cells (U87MG-Luc 2 glioblastoma)	fluorescence in brain tissue, % of the initial dose ([2]; 4 days after intravenous injection, 10 mg/kg)	blood levels compared with the antibody linked to TAT [2, 3]	distribution of fluorescence in the brain (confocal, frozen sections) (U87MG-Luc 2 glioblastoma; cy5.5 labeled, administered 8 hours before sacrifice, FIG. 6(c))
VSRRRRRRRGGRRRRR-VPALR [SEQ ID NO: 17]	fluorescence could be observed in the brain	the extent of penetration into the brain was large	–	–	–	–	–	–
complex of Cy5.5-labeled SEQ ID NO: 17 peptide for penetrating the blood-brain barrier and SEQ ID NO: 59 antibody: complex of SEQ ID NO: 17 blood-brain barrier penetrating peptide and SEQ ID NO: 59 … (conjugate, Cy5.5 label; conjugated complex) chain 1: VSRRRRRRGGRRRRVPALR chain 2: MAWVWTLLFLMAAAQSIQAEWIKQRPGQGLEWIGVIHPGNGGTNYNENFKGKATLTADKSSSTAYMQLSSLTSDDSAVYFCASGNDGSYWGQGTTVTVSSGGGGSGKGGSGGGGSGGGGSDIELTQSPSSLTVTAGEKVTMSCKSSQSLLNSGDQKIYLTWYQQKPGQPPKLLIYWASTRESGVPDRFTGSVSGTDFTLTISSVQAEDLAVYYCQNDYNYPYTFGGGTKCLEIKRGSENLYFQGGSGKPIPNPLLGLDSTGGSGGSHHHHHH	fluorescence could be observed in the brain	the extent of penetration into the brain was large	–	–	–	–	–	–
SEQ ID NO: 59 antibody: antibody represented by amino acid sequence of SEQ ID NO: 59, has therapeutic efficacy in glioblastoma (protein) MAWVWTLLFLMAAAQSIQAEWIKQRPGQGLEWIGVIHPGNGGTNYNENFKGKATLTADKSSSTAYMQLSSLTSDDSAVYFCASGNDGSYWGQGTTVTVSSGGGGSGKGGSGGGGSGGGGSDIELTQSPSSLTVTAGEKVTMSCKSSQSLLNSGDQKIYLTWYQQKPGQPPKLLIYWASTRESGVPDRFTGSVSGTDFTLTISSVQAEDLAVYYCQNDYNYPYTFGGGTKCLEIKRGSENLYFQGGSGKPIPNPLLGLDSTGGSGGSHHHHHH	fluorescence was not observed in the brain	observed to a lesser extent inside the brain	no fluorescence was measured in brain tissue	≤ 12 days	many brain tumor cells survived	–	–	–
complex of CGGGG-SEQ ID NO: 41 peptide for penetrating the blood-brain barrier and SEQ ID NO: 59 antibody: SEQ ID NO: 41 peptide with N-terminal linker CGGGG chemically conjugated to antibody of SEQ … (conjugate, N-terminal CGGGG linker; chemical conjugation) chain 1: VSRRRRRRGGRRRRHAIYPRH chain 2: MAWVWTLLFLMAAAQSIQAEWIKQRPGQGLEWIGVIHPGNGGTNYNENFKGKATLTADKSSSTAYMQLSSLTSDDSAVYFCASGNDGSYWGQGTTVTVSSGGGGSGKGGSGGGGSGGGGSDIELTQSPSSLTVTAGEKVTMSCKSSQSLLNSGDQKIYLTWYQQKPGQPPKLLIYWASTRESGVPDRFTGSVSGTDFTLTISSVQAEDLAVYYCQNDYNYPYTFGGGTKCLEIKRGSENLYFQGGSGKPIPNPLLGLDSTGGSGGSHHHHHH	–	–	–	–	the bioluminescence caused by brain tumor cells decreased	approximately 7%	higher	distributed in the area where the brain tumor occurred
